Holding throughout (experiment): fluorescence anisotropy
Settings in all cases: unmodified in vitro transcript; FA: 5 nM labeled tRNA, 25 mM Tris-HCl pH 8, 50 mM NaCl, 1 mM MgCl2, room temperature, 30 min
In general terms: In fluorescence polarisation assays a small probe gives low polarisation when free and higher when bound to something large.

In data set [1] the test system is MBP-ERS2.5W E205G (Homo sapiens).
The test system of data set [2] is MBP-ERS2.5W P14R (Homo sapiens).
The test system of data set [3] is MBP-ERSRC E205G (Homo sapiens).

pKd: −log10 of the molar value.

Turning to tRNAGlu(TTC), the figures for the pKd in data set [1], in data set [2] and in data set [3] were 7.27, 7.03 and 6.56, respectively.

Broadly, the pKd is the negative decadic logarithm of the Kd, by convention in mol/L. Read a low pKd as a large Kd.

For the origin of these results see PMC8511952.
